Test results from the supplement of paper PMC12042874.
± gives the uncertainty stated by the source.

Assay: amyloid nucleation score (Sup35N fusion, yeast selection) (log enrichment); library NNK2; higher = more nucleation; inactive = no reads after selection
In short: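 The nucleation score is the log enrichment of output over input reads, calculated with DiMSum and centred on the mode score of non-aggregating sequences. Sequences with under 100 input reads were excluded. Reads came from Illumina sequencing of plasmid inserts from psi-negative yeast expressing Sup35N fused to peptides of 20 random codons, induced 24 hours with 100 μM copper sulfate and grown 7 days at 30°C without adenine and uracil.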

Substance	amyloid nucleation score
RRNFGGNLNWIDIVYEHVCL	0.09 ± 0.33
PRQHYSNRGFCFSFILGVGM	-0.327 ± 0.34
SFVNFCRLRASLCAVAISTT	inactive
FSLQCPFSERKIYRRLCSPS	inactive
TWQTLYASSVFFANPVEHPL	0.068 ± 0.29
VAVDLRGIDGNIYAFQAKIE	2.97 ± 0.068
KGCVMSY	-0.578 ± 1.1
IMWRTERINNYVDSV	-0.846 ± 0.45
SIIIVKFLIGWRILWRSLTY	inactive
AMERDYFLTVTCDRVKYLGE	1.01 ± 0.4
QSGFEVSCLSDMDSCYRSRN	0.509 ± 0.31
MGSAS	0.682 ± 0.34
CRMHVFVEC	-0.019 ± 0.53
NTLKVQIV	2.94 ± 0.075
MVLVMCPLS	0.015 ± 0.25
FHGAYIGASSVNDPSVSD	5.322 ± 0.04
CHRLVLQLI	inactive
SFEPFETLEREVPPPLTWPT	1.99 ± 0.2
LFDVMIQTRCLYHWNSPHNL	5.14 ± 0.065
SFGKVYFN	0.617 ± 0.53
NLRRCSHFHLACP	inactive
IIVGATKMLCCFHVMMVYAP	0.472 ± 0.8
DSGRCFSFKWFCYFQHHHEV	2.18 ± 0.17
ARNRSSIKWGRGSDYGFTEL	0.451 ± 0.65
NMGIRRFKFYIVNA	-0.965 ± 0.78

Substance	amyloid nucleation score
SAIDWDFQTIFLLSEFQYGF	-1.44 ± 1.1
NLVFKPFCEPSVVSV	0.099 ± 0.62
PGDMLSGAFHMCISNCVTSC	0.319 ± 0.38
SFIRMWKDRLYHRLVALNRV	1 ± 0.48
KTIVSYV	inactive
YRFVLVRNKVSYH	-0.827 ± 0.33
QWMVLQSDRGAEMIARA	1.29 ± 0.2
FECKCKVYTPAWGCHQYLIL	inactive
RKDLEVLNGLRICMVGSAPV	-0.055 ± 1.1
GAIIGIAGVPKGLSNSHSDG	-0.606 ± 1.1
YYEVCPI	-0.076 ± 0.44
TVGRWH	-0.939 ± 0.76
TIWFFFL	7.075 ± 0.043
QLNAVDMAKPVVGLFREQSY	-0.15 ± 0.39
VTRTDVKPKVVGRRRARLCL	0.705 ± 0.44
PRCNGHY	inactive
VSKSFFIVIV	5.702 ± 0.047
TNKYLVGSILYLFKHGWLGV	0.067 ± 0.55
RALVD	-0.548 ± 1.1
MYEGGSTLW	-0.441 ± 0.45
HMYVGHGLNVFAYISMLGVY	inactive
TGLWDVCQVLIRFRNVFWRN	3.06 ± 0.079
VRLFLPHIYKMSLRDGGFEP	-0.349 ± 0.63
EYSMHTWCRYKEDFSRGASG	2.98 ± 0.096
LGDLFYYFTVRK	0.389 ± 0.66

Substance	amyloid nucleation score
PELSNDQGYFVDSVKSGKVE	-0.036 ± 0.48
TASWNWLGIVRAGF	1.08 ± 0.27
ESSYVRIQ	0.13 ± 0.4
WMSFTHLLNTIAVMSYLTVL	-0.249 ± 0.25
RTDFMHTIFLPCRGHGMSWF	0.91 ± 0.35
LAYLSLICFCVDSPTQVGLM	10.11 ± 0.038
KYRCLLRATPFDKEVGSTRF	-0.753 ± 1
TSPRRACWSIQSDDWFGFEW	1.33 ± 0.38
SESHICGV	-1.62 ± 0.62
YVFLGD	2.35 ± 0.11
LDEPRM	0.16 ± 0.24
DFVPNGCNCINSGWDFRQVD	-1.88 ± 0.64
SVRPRPD	0.617 ± 0.23
CSIVVNQARCDGSCNYRKVM	9.731 ± 0.055
LSPTYRFGTTSSWGINGRDT	0.716 ± 0.24
NSLVAVSLSAWWKPGDGSFS	6.29 ± 0.085
SVGRTESAQYRKTV	0.568 ± 0.44
WRYSRKMDRPFYRAMCYVNI	1.68 ± 0.1
TTLYMACYSSCDEGN	-0.193 ± 0.27
LMSFGDLCIHLGFGSCFCLM	-0.631 ± 0.39
NISDTSMISNGYCIN	0.154 ± 0.63
CCFVVISYDRNSQLH	9.791 ± 0.043
CRITNSNSL	-0.448 ± 0.28
LLFTGNLGFTVSRSLSRRDR	6.945 ± 0.069
RLTSGIW	-0.814 ± 0.76

Substance	amyloid nucleation score
RWSGPGCTLSTGMWTFIPQV	-0.145 ± 0.76
YMHCNNCSNVHVWAKKKCRE	8.432 ± 0.043
VMCSWVGDLWFCESIRAQEV	8.035 ± 0.047
LRCSESCNLMNKYGWRRNQA	3.65 ± 0.081
LYRFSSLLWLSVSSSCDIV	inactive
RLCWWLVWS	0.166 ± 0.76
LSFRGDSR	0.243 ± 0.26
LIRFYEIFSW	-0.237 ± 1
ALSSFIGVRNLQAQGHFTQI	0.638 ± 0.36
VLEKRFIRL	-0.785 ± 0.46
RMRFYWWDVSMLYTCSYSDF	1.04 ± 0.11
AESVCYQMTCIPCLLIFNTV	8.966 ± 0.054
QSQSSNCYDFIRTNDRKSIC	inactive
HIMSIDVPSNLSLQFIMVGY	0.306 ± 0.64
SMQFLCYKKLC	-0.565 ± 1.1
SVYANILFNKACMRFNVVNG	0.23 ± 0.21
LPIDVSNVGTFVEWIFFAIR	-1.5 ± 0.54
RPLSAEACPYVCTVSWDGLW	1.02 ± 0.14
VCCKLEFVSKHFRCVNGCDE	9.264 ± 0.055
NLNSFMVADYLYGDQVQKVF	0.138 ± 0.8
DSILLSLCPTNCFKN	-0.148 ± 0.63
FMGSSIGLSSCPLEDTYVLP	-0.403 ± 1
GNNFIF	inactive
VYLSSLDSRMRLSTCFRE	-0.19 ± 0.35
FGYLVIKFVTYVRRRTNTYN	-0.113 ± 0.56

Substance	amyloid nucleation score
SLWLSEVVCMDTVHQEIIMA	-0.163 ± 0.42
SSTVAGAIIE	0.575 ± 0.18
SNEHKYFQNIATNVLV	-0.371 ± 0.64
LGFIHSTG	inactive
FQHNVAIKRWRRLADSLYSV	0.723 ± 0.57
PSDSLVYVYDL	-0.41 ± 0.38
NKLWFWMGHTMSVEFDLIDN	inactive
IDCRELFVSLQVNRMLE	0.234 ± 0.49
VVEGGRFLVDSRWKVVSRGC	-0.719 ± 0.38
FPLIDTYLEFMEPNGYWNSS	0.516 ± 0.81
STRNSFPSDKAYLS	-0.605 ± 0.74
MFVCYSRYIASEREPAACPI	inactive
RCLVREISNPDGSDSIIWLR	-0.574 ± 0.55
GLESFGDYSVKIPLGDLFGP	-0.025 ± 0.3
MYVRVDFVFSNADRTWNPLK	3.76 ± 0.08
VCSFVCNLCSLCEIEFWLIA	0.521 ± 0.26
ILYMTDKLDQSSCLGLMSSH	-1.81 ± 0.78
LEGMFLPGFFSCVRFLWL	-1.51 ± 0.78
GEDCWRPPVR	0.559 ± 0.5
HLYMH	1.62 ± 0.18
LSGDNCPRV	-0.342 ± 0.49
AVQAIITHQTLGKQVFFWFE	7.85 ± 0.076
LYMYKNAKVLVSHLYYWYNY	inactive
NRTSYQNLIDNATTVSIMF	1.55 ± 0.22
WFMRDMEYFPDGLGDYG	inactive

Substance	amyloid nucleation score
EVSQGLDSILYLWYDEWDSA	-0.608 ± 0.31
HRFSLRNHCRSFSSGHLVHN	-1.24 ± 0.75
EISAMVAL	-1.06 ± 0.54
RLGSRGSLSFYVHLTCWVEV	-0.27 ± 0.79
ELLQVEYNHHDSKEFMLVMI	0.239 ± 0.43
FRQFS	0.285 ± 1
FDLNVVDIFTLCMRKRYTME	inactive
FLIFINMGIRRIRHV	-1.37 ± 0.75
VQSGWTSKGVLPQVANRTLR	0.827 ± 0.44
WYEYCFCGVMLYRTGDCTRR	3.96 ± 0.086
CDSWWYFSNKANSLWSKCSA	-0.723 ± 0.35
SACLFLDME	0.664 ± 0.41
ANRNRYNLHWDMG	0.946 ± 0.6
IFDIWTSIAVRDLLLNGRSW	0.561 ± 0.31
FFYWLAMIW	-0.582 ± 0.63
VMCFNAVSLTFVFRDMTSYY	8.804 ± 0.05
IFSLP	-0.464 ± 0.5
TGLAIGCFLVCSVLYGDR	3.17 ± 0.13
LELKFFHHPSPCFYNITQSA	3.76 ± 0.092
CVSVGCVESGTMICQLKLSQ	7.19 ± 0.075
YRKSWVWVLLESASAMLIGL	0.682 ± 0.22
RIGCRRPRFDNEQQWARS	5.62 ± 0.093
FVGDTIQVVIWLMIIYFWFF	0.959 ± 0.74
LHCRSCGF	-0.193 ± 0.43
MYRPINFITCSVRMFVVIVC	inactive

Substance	amyloid nucleation score
KSFSCVCPWFGH	10.32 ± 0.031
VLRYLDFDYRLELFIYVMHR	-1.48 ± 1.1
TSSCFDCSFNMEFLMVLVSF	1.52 ± 0.2
AYLLWVRYIYEHDSTIGWLI	inactive
NLNYLVLTYDVSVWNVYVVL	8.17 ± 0.046
MGMAHFDSQPLGYILGASMC	-0.727 ± 0.79
LGLCLHLISSFRHRYAVLSR	-0.19 ± 0.3
IGSRSMNYWLVVFD	1.48 ± 0.11
LFTKRRW	0.87 ± 0.46
SWFRMSVWSSLRAHMNASNT	-0.198 ± 0.28
WPIMMYGKFVFDRHIHCGAL	0.141 ± 0.41
TISLRGDMDSSCKGIEGSSL	-0.316 ± 1.1
FKSLVVSLCIPSDMNNLKCS	-0.474 ± 0.79
TLSVGVQL	-0.624 ± 0.63
YVVEHQLMYAVWLFALGGSN	0.655 ± 0.24
HRRVVAPNKCWMSLACFWDL	4.33 ± 0.053
IFKQVTIYLYGGRSLLGSRR	-0.507 ± 0.54
PYRLHMCCWEPLRSMLFMSF	1.03 ± 0.31
RLCAVITMVEVIYFSYYVWF	0.013 ± 0.55
IKRSTNISEMWHYSFGVTVL	-1.09 ± 0.63
SLEFCLVWFSSMRRMCV	0.673 ± 0.48
VEFYCSTERCLYDFTNG	-2.3 ± 0.75
